This sample holds only a part of the variants without activity.
B1: TPR 5TU (parent)
chain: GGAUCUUCUCGAUCUAACAAAAAAGACAAAUCUGCCACAAAGCUUGAGAGCAUCUUCGGAUGCAGAGGCGGCAGCCUUCGGUGGCGCGAUAGCGCCAACGUUCUCAACUAUGACACGCAAAACGCGUGCUCCGUUGAAUGGAGUUUAUCAUG

Variants of: B1
Test: polymerase ribozyme fitness, log enrichment relative to wild type (log ratio); higher = more active; in vitro selection for triplet polymerase activity
Summary of the method: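 The heterodimeric triplet polymerase ribozyme's subunits were each mutagenized into PCR-built libraries and transcribed. Every library was selected once, in triplicate, by annealing with a biotinylated primer, the partner subunit and triplets, incubating frozen at −7 °C, gel-excising extended constructs, capturing on streptavidin beads and running RT-PCR. Input and output libraries were Illumina-sequenced, with genotypes kept only at ≥10 input reads and ≥1 read per output. Fitness, from inverse-variance-weighted replicate averages, is the base-2 logarithm of genotype enrichment over wild-type enrichment.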

Variant | polymerase ribozyme fitness (log ratio)
GGAUCUUCUCGAUCUAACAAAAAAGACAAAUCUGCCACAAAGCUUGAGAGCAUCUUCGGAUGCAGAGGCGGCAGGCGUCCGUGGCGCGAUAGCGCCUACGUUCUCAACUAUGACACGCAAAACACGUGCUCCGUUGAAUGGAGUUUAUCAUG | ≤ -4.2
GGAUCUUCUCGAUCUAACAAAAAAGACAAAUCUGCCACAAAGCUUGAGAGCAUCUUCGGAUGCAGAGGCGGCAGCAUUCGGUGGAGCGAUAGCGCCAACGUUCUCAACUAUGACACGCAAAACGCGUGCUCCGUUGAAUGGAUUUUAUCAUG | ≤ -4.2
GGAUCUUCUCGAUCUAACAAAAAAGACAAAUCUGCCACAAAGCUUGAGAGCAUCUUCGGAUGCAGAGGCGGCAGGCUUCGGUGGCGCGAUAUCGCCAACGUUCUCAACUAUGACACGCAAAACGCGUGCUCCGUUGAAUGGAGUUUAUCAUG | -2.52
GGAUCUUCUCGAUCUAACAAAAAAGACAAAUCUGCCACAAAGCUUGAGAGCAUCUUCGGAUGCAGAGGCGGCAGCAUUCGGUGGGGUGAUAGCGCCAACGUUCUCAACUAUGACACGCAAAACGCGUGCUCCGUUGAAUGCCGUUUAUCAUG | ≤ -4.2
GGAUCUUCUCGAUCUAACAAAAAAGACAAAUCUGCCACAAAGCUUGAGAGCAUCUUCGGAUGCAGAGGCGGCAGUCUUCGGUGGCGCGAUGGCGCCAACGUUCUCAACUAUGACACGCAAAACGCGUGCUCCGUUGAAUGGAGUUUCUCAUG | -3.68
GGAUCUUCUCGAUCUAACAAAAAAGACAAAUCUGCCACAAAGCUUGAGAGCAUCUUCGGAUGCAGAGGCGGCAGUCUUCGGUGGCGCGAUAGCGCCAACGUUCUCAGCUAUGACACGCAAAACGCGUGCUCCGUUGAAUGGGGUUUAUCAUG | ≤ -4.2
GGAUCUUCUCGAUCUAACAAAAAAGACAAAUCUGCCACAAAGCUUGAGAGCAUCUUCGGAUGCAGAGGCGGCAGUCUUCGGUCGCGCGAUAGCGCCAACGUUCUCAACUAUGACACGCAAAACGCGUGCUCCGUUGAAUGGAGUUUAUCAUG | -1.13
GGAUCUUCUCGAUCUAACAAAAAAGACAAAUCUGCCACAAAGCUUGAGAGCAUCUUCGGAUGCAGAGGCGGCAGCAUUCGGUGGAGCGAUAGCGCCAACGUUCUCAACUAUGACACGCAAGACGCGUGCUCCGUUGAAUGGAGUUUAUCAUG | -2.03
GGAUCUUCUCGAUCUAACAAAAAAGACAAAUCUGCCACAAAGCUUGAGAGCAUCUUCGGAUGCAGAGGCGGCAGUCUUCGGUGGCGCGAUAGCGCCAACGUUCUCAACUAUGACACGCAAAACGCGUGCUCCGUUAAAUGGAGUUUAUCAUG | 1.26
GGAUCUUCUCGAUCUAACAAAAAAGACAAAUCUGCCACAAAGCUUGAGAGCAUCUUCGGAUGCAGAGGCGGCAGUCUUCGGUGGCGCGAUGGCGCCAAUGUUCUCAACUAUGACACGCAAAACGCGUGCUCCGUUGAAUGGAGUUUAUCAUG | -3.56
GGAUCUUCUCGAUCUAACAAAAAAGACAAAUCUGCCACAAAGCUUGAGAGCAUCUUCGGAUGCAGAGGCGGCAGCAUUCGGUGGCGCGAUAGCGCCAACGUUCUCAACUAUGACACGCAAAACGCGUGCUCCGUUGGAUGGAGUUUAUCAUG | -1.07
GGAUCUUCUCGAUCUAACAAAAAAGACAAAUCUGCCACAAAGCUUGAGAGCAUCUUCGGAUGCAGAGGCGGCAGUCUUCGGUGGUGCGAUAGCGCCAACGUUCUCAACUAUGACACGCGAAACGCGUGCUCCGUUGAAUGGAAUUUCUCAUG | -3.76
GGAUCUUCUCGAUCUAACAAAAAAGACAAAUCUGCCACAAAGCUUGAGAGCAUCUUCGGAUGCAGAGGCGGCAGCAUUCGGUGGCGCGAUCGCGCCAACGUUCUCAACUAUGACACGCAAAACGCGUCCUCCGUUGAAUGGAAUUUAUCAUG | ≤ -4.2
GGAUCUUCUCGAUCUAACAAAAAAGACAAAUCUGCCACAAAGCUUGAGAGCAUCUUCGGAUGCAGAGGCGGCAGCAUUCGGUGGCGCGAUAGCGCCAACGUUCUCAACUUUGACACGCAAAACGCGUGCUCCGUUGAACGGAUUUUAUCAUG | ≤ -4.2
GGAUCUUCUCGAUCUAACAAAAAAGACAAAUCUGCCACAAAGCUUGAGAGCAUCUUCGGAUGCAGAGGCGGCAGUCUUCGGUGGCGCGAUAGCGCCAAUGUUCUCAACUAUGACACGCAAAACGCGUGCUCCGUUGAAUGGAGUUUAUCAUG | -2.07
GGAUCUUCUCGAUCUAACAAAAAAGACAAAUCUGCCACAAAGCUUGAGAGCAUCUUCGGAUGCAGAGGCGGCAGUCUUCGAUGGAGCGAUAGCGGCAUCGUUCUCAACUAUGACACGCAAAACGCGUGCUCCGUUGAAUGGAGUUUAUCAUG | -3.71
GGAUCUUCUCGAUCUAACAAAAAAGACAAAUCUGCCACAAAGCUUGAGAGCAUCUUCGGAUGCAGAGGCGGCAGCAUUCGGUGGCGCGAUAGCGCCAACGUUCUCAACUAUGACACGCAAGACGCGUGCUCCGUUGAAUGGAGUUUAUCAUG | 0.0173
GGAUCUUCUCGAUCUAACAAAAAAGACAAAUCUGCCACAAAGCUUGAGAGCAUCUUCGGAUGCAGAGGCGGCAGUCUUCGGUGGUGCGAUAGCGCCAACGUUCUCCACUAUGACACGCAAACCGCGUGCUCCGUAGAAUGGAGUAUAUCAUG | -3.69
GGAUCUUCUCGAUCUAACAAAAAAGACAAAUCUGCCACAAAGCUUGAGAGCAUCUUCGGAUGCAGAGGCGGCAGUCUUCGGUGGCGCGAUAGCGCCAACGUUCUCAACUAUGACACGCAAAACGCGUGCUCCGUUGAAUGGCGUUUAUCAUG | -1.32

Variant | polymerase ribozyme fitness (log ratio)
GGAUCUUCUCGAUCUAACAAAAAAGACAAAUCUGCCACAAAGCUUGAGAGCAUCUUCGGAUGCAGAGGCGGCAGGCUCCGGUGGCGCGAUAGCGCCAAUGUUCUCAACUAUGACACGCAAAACGCGUGCUCGGUUGAAUGGAGUUUAUCAUG | ≤ -4.2
GGAUCUUCUCGAUCUAACAAAAAAGACAAAUCUGCCACAAAGCUUGAGAGCAUCUUCGGAUGCAGAGGCGGCAGUCUUCGGCGGCGCGAUAGCGCCAACGUUCUCAACUAUGACAAGCAAAACGCGUGCUCCGUUGAAUGGAGUUUAUCAUG | 0.695
GGAUCUUCUCGAUCUAACAAAAAAGACAAAUCUGCCACAAAGCUUGAGAGCAUCUUCGGAUGCAGAGGCGGCAGUCUUCGGUGGCGCGAUAUCGCCAACGUUCUGAACUAUGACUCGCAAAACGCGUGCUCCGUUGAAUGGAGUUUAUCAUG | -4.17
GGAUCUUCUCGAUCUAACAAAAAAGACAAAUCUGCCACAAAGCUUGAGAGCAUCUUCGGAUGCAGAGGCGGCAGCAUUCGGUGGCGCGCUAGCGCCAACGUUCUCAACUAUGACACGCAAAACGCGUGCUCCGUUGAAUGGAGUUUAUCAUG | -0.238
GGAUCUUCUCGAUCUAACAAAAAAGACAAAUCUGCCACAAAGCUUGAGAGCAUCUUCGGAUGCAGAGGCGGCAGUCUUCGGUGUCGCGAUAGCGCCAACGUUCUCAACUAUGACACGCAAAACGCGUGCUCCGCUGAAUGGAGUUUAUCAUG | -1.39
GGAUCUUCUCGAUCUAACAAAAAAGACAAAUCUGCCACAAAGCUUGAGAGCAUCUUCGGAUGCAGAGGCGGCAGCAUUCGGUGGCGCGAUAGCGCCAUCGUUCUCAACUAUGACACGCAAAACGCGUGCUCCGUUAAAUGGAGUAUAUCAUG | 0.194
GGAUCUUCUCGAUCUAACAAAAAAGACAAAUCUGCCACAAAGCUUGAGAGCAUCUUCGGAUGCAGAGGCGGCAGCAUUCGGUGGGGCGAUAGCGCCAACGUUCUCAACUAUGACACGCAAAACGCGUGCUCCGUUGAAUGGAGUUUAUCAUG | -3.53
GGAUCUUCUCGAUCUAACAAAAAAGACAAAUCUGCCACAAAGCUUGAGAGCAUCUUCGGAUGCAGAGGCGGCAGUCUUCGGUGGCGCGAUAGCGUUAACGUUCUCAACUAUGACACGCAAAACGCGUGCUCCGUUGAAUGGAGUUUAUCAUG | -0.218
GGAUCUUCUCGAUCUAACAAAAAAGACAAAUCUGCCACAAAGCUUGAGAGCAUCUUCGGAUGCAGAGGCGGCAGUCUUCGGUGGCGCGAUAGCGCCAACGUUCUCAACUAUGACACGCAAAACGCGUGCUCCGUUGAAUGCAGUUUAUCAUG | -1.98
GGAUCUUCUCGAUCUAACAAAAAAGACAAAUCUGCCACAAAGCUUGAGAGCAUCUUCGGAUGCAGAGGCGGCAGCAUUCGGUGGAGCGAUAACUCCAACGUUAUCAAUUAUGACACGCAAACCGCGUGCUCCGUUGAAUGGAGUUUAUCAUG | ≤ -4.2
GGAUCUUCUCGAUCUAACAAAAAAGACAAAUCUGCCACAAAGCUUGAGAGCAUCUUCGGAUGCAGAGGCGGCAGUCUUCGGUGGCGCGAUAUCGCCAACGUUCUCAACUAUGACACGCAAAACGCGUGCUCCGUUGAAUGGAGUUUAUCAUG | -2.38
GGAUCUUCUCGAUCUAACAAAAAAGACAAAUCUGCCACAAAGCUUGAGAGCAUCUUCGGAUGCAGAGGCGGCAGUCUUCGGUGGCGCGAUACCGCCAACGUUCUCAACUAUGACACGCAAAACGCGUGCUCCGUUGAAUGGAGUUUAUCAUG | -1.11
GGAUCUUCUCGAUCUAACAAAAAAGACAAAUCUGCCACAAAGCUUGAGAGCAUCUUCGGAUGCAGAGGCGGCAGCAUUCGGUGGCGCGAUAGCGCCAACGUUCUCAGCUAUGACACGCAAAACGCGUGCUCCGUUGAAUGGAGUCUAUCAUG | ≤ -4.2
GGAUCUUCUCGAUCUAACAAAAAAGACAAAUCUGCCACAAAGCUUGAGAGCAUCUUCGGAUGCAGAGGCGGCAGCAUUCGGUGGCGCGAUAGCGCCAACGUUCUCAGCUAUGACACGCAAAAUGCGUGCUCCGUUGAAUGGCGUUUAUCAUG | -3.65
GGAUCUUCUCGAUCUAACAAAAAAGACAAAUCUGCCACAAAGCUUGAGAGCAUCUUCGGAUGCAGAGGCGGCAGUCUUCGGUGGCGCGAUAGCGCCAGCGUUCUCAACUAUCACACGCAAAUCGCGUGCUCCGUUGAAUGGAGUUUAUCAUG | ≤ -4.2
GGAUCUUCUCGAUCUAACAAAAAAGACAAAUCUGCCACAAAGCUUGAGAGCAUCUUCGGAUGCAGAGGCGGCAGGCUGCGGUGGCGCGAUAGCGCCAACGUUCUCAACUAUGACGCGCAAAACGCGUGCUCCGUUGAAUGGAGUUUAUCAUG | ≤ -4.2
GGAUCUUCUCGAUCUAACAAAAAAGACAAAUCUGCCACAAAGCUUGAGAGCAUCUUCGGAUGCAGAGGCGGCAGUCUUCGGUGUCGCGAUAGCGCCAAUGUUCUCAACUAUGACCCGCAAAACGCGUGCUCCGUUGAAUGGAGUUUAUCAUG | -3.35
GGAUCUUCUCGAUCUAACAAAAAAGACAAAUCUGCCACAAAGCUUGAGAGCAUCUUCGGAUGCAGAGGCGGCAGCAUUCGGUGGCGCGUUAGCGCCAACGUUCUCAACUAUGACACGCAAAACGCGUGCUCCGUUGAAUGUAGUUUAUCAUG | -2.94
GGAUCUUCUCGAUCUAACAAAAAAGACAAAUCUGCCACAAAGCUUGAGAGCAUCUUCGGAUGCAGAGGCGGCAGUCUUCGGUGGCGCGAUACCGCCAACGUUCUCAACAAUGACACGCAAAACGCGUGCUCCGUUGAAUGGAGUUGAUCAUG | -3.93

From the RNAGym collection of RNA variant scans (doi:10.1073/pnas.2313332121)
